Results from PMC6614801, “Structural basis for the function of SuhB as a transcription factor in ribosomal RNA synthesis” (Nucleic Acids Research, 2019).

T1: SuhB^K108A (E. coli, UniProt P0ADG4 1-267, K108A)
T1 sequence (looked up): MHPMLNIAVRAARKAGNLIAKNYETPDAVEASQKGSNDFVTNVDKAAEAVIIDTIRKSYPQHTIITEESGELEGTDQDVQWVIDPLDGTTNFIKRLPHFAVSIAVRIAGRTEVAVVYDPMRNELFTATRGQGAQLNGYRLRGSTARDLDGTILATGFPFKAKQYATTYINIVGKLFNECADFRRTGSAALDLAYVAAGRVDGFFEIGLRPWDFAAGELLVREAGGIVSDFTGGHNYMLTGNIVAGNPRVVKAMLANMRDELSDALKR

B1: SuhB (inositol mono-phosphatase SuhB), wild type (natural protein, E. coli, UniProt P0ADG4 1-267, looked up)
chain: MHPMLNIAVRAARKAGNLIAKNYETPDAVEASQKGSNDFVTNVDKAAEAVIIDTIRKSYPQHTIITEESGELEGTDQDVQWVIDPLDGTTNFIKRLPHFAVSIAVRIKGRTEVAVVYDPMRNELFTATRGQGAQLNGYRLRGSTARDLDGTILATGFPFKAKQYATTYINIVGKLFNECADFRRTGSAALDLAYVAAGRVDGFFEIGLRPWDFAAGELLVREAGGIVSDFTGGHNYMLTGNIVAGNPRVVKAMLANMRDELSDALKR
notes: Inositol mono-phosphatase SuhB of E. coli, PCR-amplified from E. coli (DH5α) genomic DNA, full length; Dimer by SEC-MALS and in both crystal structures; also called wt SuhB; SuhB^II; source: E. coli BL21(DE3)pLysS, purified (Ni-NTA, TEV digestion, SEC)

Columns and labels:
Settings in all cases: both partners purified
NusA, full length = target: T2, NusA, full length (E. coli, UniProt P0AFF6 1-495); experiment: SEC; analytical SEC of mixtures of proteins only; Superdex 200 Increase 3.2/300; 20 μM largest component, 25 μM all smaller components; 20 mM HEPES–NaOH pH 7.5, 50 mM NaCl, 1 mM DTT; incubated at room temperature for 15 min; fractions on SDS-PAGE
T2 construct: Transcription factor NusA of E. coli, full length; also called NusA^FL; N-utilization substance A; source: recombinant, produced and purified as described previously (18,19)

[1] = target: B1; experiment: SPR; Biacore, Sensor Chip NTA, 20°C; N-terminally His6-tagged NusA^AR2 immobilised; single cycle kinetics with SuhB variants at 25, 50, 100, 150 and 200 nM; 20 mM HEPES–NaOH pH 7.5, 50 mM NaCl, 1 mM DTT
SuhB^K108A = target: T1, SuhB^K108A; experiment: as above

Binder | binding result (NusA, full length) | Kd [1] [nM] | Kd (SuhB^K108A) [nM]
B1 | binds |  | 
SuhB^KL251/254AA (natural protein, E. coli, UniProt P0ADG4 1-267, looked up, also called KL/AA) MHPMLNIAVRAARKAGNLIAKNYETPDAVEASQKGSNDFVTNVDKAAEAVIIDTIRKSYPQHTIITEESGELEGTDQDVQWVIDPLDGTTNFIKRLPHFAVSIAVRIKGRTEVAVVYDPMRNELFTATRGQGAQLNGYRLRGSTARDLDGTILATGFPFKAKQYATTYINIVGKLFNECADFRRTGSAALDLAYVAAGRVDGFFEIGLRPWDFAAGELLVREAGGIVSDFTGGHNYMLTGNIVAGNPRVVAAMAANMRDELSDALKR | binds |  | 
N-terminally His6-tagged NusA^AR2 (domain or fragment, E. coli, UniProt P0AFF6 427-495, looked up, C-terminal acidic repeat 2 (AR2) domain of E. coli NusA, residues 427–495; Same construct as m3, with the His6 tag kept for capture on the NTA chip in SPR; also called wt AR2; source: recombinant (pETM-11), purified via the same protocol as full-length NusA (19); not shown: His6, N-terminal, kept) DNKPADDLLNLEGVDRDLAFKLAARGVCTLEDLAEQGIDDLADIEGLTDEKAGALIMAARNICWFGDEA |  | 94 | 435
